Assay results: US20240192215A1

Tests used:
Peptide_096 (human) [1] = target: T1, Peptide_096 (human); test: peptide microarray, head 0.08 ug (text 0.008 ug/mL)
T1 sequence (peptide): FFKKGQKVGEFSGAN

Peptide_097 (human) [2] = target: T2, Peptide_097 (human); test: as above
T2 sequence (peptide): FKKGQKVGEFSGANK

Peptide_044 (human) [3] = target: T3, Peptide_044 (human); test: as above
T3 sequence (peptide): FSATWCGPCKMIKPF

Peptide_096 (human) [4] = target: T1, Peptide_096 (human); test: peptide microarray, 5 ug/mL
Peptide_097 (human) [5] = target: T2, Peptide_097 (human); test: peptide microarray, 5 ug/mL
Peptide_044 (human) [6] = target: T3, Peptide_044 (human); test: peptide microarray, 5 ug/mL
Peptide_096 (human) [7] = target: T1, Peptide_096 (human); test: peptide microarray, 1 ug/mL
Peptide_097 (human) [8] = target: T2, Peptide_097 (human); test: peptide microarray, 1 ug/mL
Peptide_044 (human) [9] = target: T3, Peptide_044 (human); test: peptide microarray, 1 ug/mL
TRX-N-His-M1 (human) = TRX-N-His-M1 (human) (UniProt P10599); test: ELISA, mutant M1 coated at 2 ug/mL, antibody concentration not given, anti-mouse Fc-HRP (Example 16)
Peptide_096 (human) [10] = target: T1, Peptide_096 (human); test: peptide microarray, 0.2 ug/mL
Peptide_097 (human) [11] = target: T2, Peptide_097 (human); test: peptide microarray, 0.2 ug/mL
Peptide_044 (human) [12] = target: T3, Peptide_044 (human); test: peptide microarray, 0.2 ug/mL
TRX-N-His-M4 (human) = TRX-N-His-M4 (human) (UniProt P10599); test: ELISA, mutant M4 coated at 2 ug/mL, antibody concentration not given, anti-mouse Fc-HRP (Example 16)
Peptide_096 (human) [13] = target: T1, Peptide_096 (human); test: peptide microarray, 0.04 ug/mL
Peptide_097 (human) [14] = target: T2, Peptide_097 (human); test: peptide microarray, 0.04 ug/mL
Peptide_044 (human) [15] = target: T3, Peptide_044 (human); test: peptide microarray, 0.04 ug/mL
TRX-N-His-M2 (human) = TRX-N-His-M2 (human) (UniProt P10599); test: ELISA, mutant M2 coated at 2 ug/mL, antibody concentration not given, anti-mouse Fc-HRP (Example 16)
Peptide_096 (human) [16] = target: T1, Peptide_096 (human); test: peptide microarray, 0.0016 ug/mL
Peptide_097 (human) [17] = target: T2, Peptide_097 (human); test: peptide microarray, 0.0016 ug/mL
Peptide_044 (human) [18] = target: T3, Peptide_044 (human); test: peptide microarray, 0.0016 ug/mL
M7 = target: T4, M7; test: ELISA, mutant M7 coated at 2 ug/mL, antibody concentration not given, anti-mouse Fc-HRP (Example 16)
T4 sequence (single chain): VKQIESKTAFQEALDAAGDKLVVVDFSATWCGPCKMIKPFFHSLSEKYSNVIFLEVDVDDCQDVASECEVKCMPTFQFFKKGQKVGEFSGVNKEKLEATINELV

TRX-N-His-M2 (human), sequence (P10599 whole entry): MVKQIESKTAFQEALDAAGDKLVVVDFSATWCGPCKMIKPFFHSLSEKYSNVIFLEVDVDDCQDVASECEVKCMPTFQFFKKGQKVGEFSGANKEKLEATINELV
TRX-N-His-M1 (human), sequence (P10599 whole entry): as above
TRX-N-His-M4 (human), sequence (P10599 whole entry): as above

B1: monoclonal antibody B264 (antibody, mouse IgG1, kappa, V domains shown)
VH: QVQLQQSGAELARPGASVKMSCKASGYTFTSYTMHWVKQRPGQGLEWIGYINPTSDYTNYNQKFKDKATLTADKSSSTAYMQLSSLTSEDSAVYFCASEGGFLYYFDYWGQGTTLTVSS
VL: DVLMTQTPLSLPVSLGDQASISCRSSQSIVHSNGNTYLEWYLQKPGQSPKLLIYKVSNRFSGVPDRFSGSGSGTDFTLKISRVEAEDLGVYYCFQGSHVPYTFGGGTKLEIKR
signal (blank-control = 1) (Peptide_096 (human) [1]): 0.94
signal (blank-control = 1) (Peptide_097 (human) [2]): 1.08
signal (blank-control = 1) (Peptide_044 (human) [3]): 1.87
signal (blank-control = 1) (Peptide_096 (human) [4]): 1.9
signal (blank-control = 1) (Peptide_097 (human) [5]): 2.26
signal (blank-control = 1) (Peptide_044 (human) [6]): 3.33
signal (blank-control = 1) (Peptide_096 (human) [7]): 2.04
signal (blank-control = 1) (Peptide_097 (human) [8]): 2.18
signal (blank-control = 1) (Peptide_044 (human) [9]): 2.93
OD 490 nm (TRX-N-His-M1 (human)): 0.0424
signal (blank-control = 1) (Peptide_096 (human) [10]): 1.37
signal (blank-control = 1) (Peptide_097 (human) [11]): 1.68
signal (blank-control = 1) (Peptide_044 (human) [12]): 2.3
OD 490 nm (TRX-N-His-M4 (human)): 0.181
signal (blank-control = 1) (Peptide_096 (human) [13]): 1.44
signal (blank-control = 1) (Peptide_097 (human) [14]): 1.31
signal (blank-control = 1) (Peptide_044 (human) [15]): 2.12
OD 490 nm (TRX-N-His-M2 (human)): 0.094
signal (blank-control = 1) (Peptide_096 (human) [16]): 0.82
signal (blank-control = 1) (Peptide_097 (human) [17]): 0.91
signal (blank-control = 1) (Peptide_044 (human) [18]): 1.6
OD 490 nm (M7): 0.761
